Assay results as given in the nanobody polyreactivity screen of Harvey et al. (2022).

Assay: yeast display, Sf9 membrane polyspecificity reagent, FACS + sequencing; frameworks hold sequencing errors
In short: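 Nanobodies from a synthetic yeast display library (Saccharomyces cerevisiae BJ5465), induced 36–48 hours with galactose, were stained 1 hour at 4 °C with 10% biotinylated, detergent-solubilized Sf9 membrane reagent, enriched on streptavidin microbeads, then FACS-sorted. Anti-HA (expression) and streptavidin (reagent binding) fluorescence set low and high (top ~1%) gates. Polyreactivity labels come from the gate of origin. Genes were colony-PCR amplified, MiSeq 2 × 250 sequenced and filtered by CDR length.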

Sequence	polyreactivity (PSR sort gate)
QVQLVESGGGLVQAGGSLRLSCAASGSTFTGNAMGWYRQAPGKERELVASINGSSGSTYYADSVKGRFTISRDNAKNTVYFQMNSLKPEDTAVYYCAKDSFLHFPRVGWVGLEYWGQGTQVTVSS	low polyreactivity
QVQLVESGGGLVQAGGSLRLSCAASGSTFTGNAMGWYRQAPGKERELVASIRRIGSPYYADSVKGRFTISRDNAKNTVDLQMISLKPEDTAVFYCAAAVKIRTPYQYGYWGQGTQVTVSS	high polyreactivity
QVQLVESGGGLVQAGGSLRLSCAASGSTFTGYAMGWYRPAPGKERELVAAISRSVGRTYYADSVKGRFTISRDNAKNTVYLQMNSLKPEDTAVYYCAADVYLTGSRNYYWGQGTQVTVSS	high polyreactivity
QVQLVESGGGLVQAGGSLRLSCAASGSTFTGYAMGWYRQAPGKEREFVATITKRGGRTYYADSVKGRFTISRDNAKNTVYLQMNSLKPEDTAVYYCARDQGKLVVPYDYWGQGTQVTVSS	high polyreactivity
QVQLVESGGGLVQAGGSLRLSCAASGSTFTGYAMGWYRQAPGKERELVASISYSGGSTYYADSVKGRFTISRDNAKNTVYLQMNSLKPEDTAVYYCNALQQYALSRYYWGQGTQVTVSS	high polyreactivity
QVQLVESGGGLVQAGGSLRLSCAASGSTFTGYAMGWYRQAPGKEREMVAAISSDGITKYADSVKGRFTISRDNAKYTVYLQMNSLKQEDTAVYYCYAPRGSRRSYRRTEYYYWGQGTQVTVSS	high polyreactivity
QVQLVESGGGLVQAGGSLRLSCAASGSTFTGYAMGWYRQAPGTERELVATINSGVSTYADSVKGRFTISRDNAKNTVYLQMNSLKPEDTAVYYCAADGLYYYQSGWIDAGYYTNGYWGQGTQVTVSS	low polyreactivity
QVQLVESGGGLVQAGGSLRLSCAASGSTFTINVMGWYRQAPGKERELVAAINGGGRTNYADSVKGRFTISRDNAKNTVYLQMNSLKPEDTAVYYCATRYSHNSGFDYWGQGTQVTVSS	low polyreactivity
QVQLVESGGGLVQAGGSLRLSCAASGSTFTIYAMGWYRQAPGKEREFVAAIDEDDGSTYYADSVKGRFTISRDNAKKTVYLQMNSLKPEDTAVYYCNADDIWAYAFDYWGQGTQVTVSS	low polyreactivity
QVQLVESGGGLVQAGGSLRLSCAASGSTFTIYAMGWYRQAPGKERELVAAISSGGGDTDYADSVKGRFTISRDNAKNTVYLQMNSLKPEDTAGYYCNAEGTSPRTGYDYCGQGTQVTVSS	low polyreactivity
QVQLVESGGGLVQAGGSLRLSCAASGSTFTIYAMGWYRQAPGKERELVAAISSGGGDTDYADSVKGRFTISRDNAKNTVYLQMNSLKPEDTAVYYCNAEGTSPRTGYDYWGQGTQVTVSS	low polyreactivity
QVQLVESGGGLVQAGGSLRLSCAASGSTFTKYAMGWYRQAPGKERELVAAITASGGNTYYADSVKGRFTISRDNAKKTVYLQMNSLKPEDTAVYYCAARQYRYKYDYWGQGTQVTVSS	high polyreactivity
QVQLVESGGGLVQAGGSLRLSCAASGSTFTLNAMGWSRQAPGKERELVADITSGGGGTYYADSVKGRFTISRDNAKNTVYLQMNSLKPEDTAVYYCAKTYRPSYNPYISFGFDYWGQGTQVTVSS	low polyreactivity
QVQLVESGGGLVQAGGSLRLSCAASGSTFTLNAMGWYRQAPGKERELVAAITSGGRTKYADSVKGRFTISRDNAKNTVYLQMNSLKPEDTAVYYCAATFAGGYGYWGQGTQVTVSS	high polyreactivity
QVQLVESGGGLVQAGGSLRLSCAASGSTFTLNAMGWYRQAPGKERELVADISWSSGRTYYADSVKGRFTISRDNAKNTVYLQMNSLKPEDTAVYYCNKDDNSYGLNYWGQGTQVTVSS	low polyreactivity
QVQLVESGGGLVQAGGSLRLSCAASGSTFTLYAMGWSRQAPGKERELVAAISRSGGRTYYADSVKGRFTISRDNAKNTVYLQMNSLKPEDTAVYYCNAPYKQDYDYWGQGTQVTVSS	high polyreactivity
QVQLVESGGGLVQAGGSLRLSCAASGSTFTLYAMGWYRQAPGNERELVASITASDGSTSYADSVKGRFTISRDNAKNTVYLQMNSLKPEDTAVYYCAARYRVRGISYYYWGQGTQVTVSS	low polyreactivity
QVQLVESGGGLVQAGGSLRLSCAASGSTFTNYAMGRYRQSAGKERELLAAINSGGSTHYADSVKGRFTISRDNANNTVYLQMYSLKPEDTAVYYCDADPSALVYYWRWLGYDYWGQGTQVTVSS	high polyreactivity
QVQLVESGGGLVQAGGSLRLSCAASGSTFTNYAMGWYRQAPGKERELLARITYNVGRTYYADSVKGRFTISRDNAKNTVYLQMNSLKPEDTAVYYCAAGVGWRYRVRWYYSLGDYWGQGTQVTVSS	high polyreactivity
QVQLVESGGGLVQAGGSLRLSCAASGSTFTNYAMGWYRQAPGKERELVAAITSVGSTYYADSVKGRFTISRDNAKNTVYLQMNSLKPEDTAVYYCNVVYRDQYNYWGQGTQVTVSS	low polyreactivity
QVQLVESGGGLVQAGGSLRLSCAASGSTFTPNAMGWYRQAPGKERELVASISTTGGNTYYADSVKGRFTISRDNAKNTVYLQMNSLKPEDTADYYCNAVRSVYLYGYIYGVDYWGQGTQVTVSS	low polyreactivity
QVQLVESGGGLVQAGGSLRLSCAASGSTFTPNARGSYRQAPGKERELVAAINYLGGSTYYADSVKGRFTISRDNAKNTVYVQMNSLKPEDTAVYYCARRQYFRGQRYDYWGQGTQVTVSS	high polyreactivity
QVQLVESGGGLVQAGGSLRLSCAASGSTFTPYAMGWYRQAPGKERELVAAINSRGGSTYYADSVKGRFTISRDNAKNTVYLQMHSLKPEDSAVYYCAARTRRRTSAYEYWGQGTQVTVSS	high polyreactivity
QVQLVESGGGLVQAGGSLRLSCAASGSTFTPYAMGWYRQAPGKERELVASITIGGSTYADSVKGRFTISRDNAKNTVYLQMNSLKPEDTAVYSCNADWNWYPFLYSRMDYWGQGTQVTVSS	low polyreactivity
QVQLVESGGGLVQAGGSLRLSCAASGSTFTPYGMGWYRQAPGKERELVAAITVSGGRTYYADSVKGRFTISRDNAKNTVYLQMNSLKPEDTAVYYCAAVYLRGDGEYDSWGQGTQVTVSS	low polyreactivity
QVQLVESGGGLVQAGGSLRLSCAASGSTFTQKAMGWYRQAPGKERELVAAISSSGTRTYYADSVKGRFTISRDNAKNTVYLQMNSLKPEDTAVYYCNARYRIGSWYEFGSWGQGTQVTVSS	high polyreactivity
QVQLVESGGGLVQAGGSLRLSCAASGSTFTQYVMGWYRQAPGKERELVAAISDSGSTYYADSVKGRFTISRDNAKNTVYLQMNSLKPEDTAVYYCATDVLAWAPYDYWGQGTQVTVSS	low polyreactivity
QVQLVESGGGLVQAGGSLRLSCAASGSTFTRNTMGWYKQAPGKEREMVAAISRRGGRTDYADSVKGRFTISRDNAKNSVYLQMNSLKPEDTAVYYCAADPITVDQNPRYGYWGQGTQVTVSS	high polyreactivity
QVQLVESGGGLVQAGGSLRLSCAASGSTFTRYAMGWYRQAPGKERELVASISRSGGRTYYADSVKGRFTISRDNAKNTVYLQMNSLKPEDTAVYYCAKLYLVTKSLLEITGGKYDGDYWGQGTQVTVSS	high polyreactivity
QVQLVESGGGLVQAGGSLRLSCAASGSTFTRYDMGSYRQAPGKERELVAAISKSGGSTYYADSVKGRFRISRDNAKNTVYLQMNSLKPEDTAVYYCNQLVEEDYWGQGTQVTVSS	low polyreactivity
